# Measured values published in patent publication US20180086841A1 (Merck Sharp & Dohme, published 2018).
# T1: Q15A
# T1 construct: also called hCD27 Q15A
# T1 receptor chain: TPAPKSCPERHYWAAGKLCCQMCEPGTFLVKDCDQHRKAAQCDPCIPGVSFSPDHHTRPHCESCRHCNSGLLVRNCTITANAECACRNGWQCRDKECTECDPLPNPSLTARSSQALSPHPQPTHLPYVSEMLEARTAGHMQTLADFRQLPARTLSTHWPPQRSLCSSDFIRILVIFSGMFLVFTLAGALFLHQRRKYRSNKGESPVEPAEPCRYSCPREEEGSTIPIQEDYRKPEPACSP
# T2: V30A
# T2 construct: also called hCD27 V30A
# T2 receptor chain: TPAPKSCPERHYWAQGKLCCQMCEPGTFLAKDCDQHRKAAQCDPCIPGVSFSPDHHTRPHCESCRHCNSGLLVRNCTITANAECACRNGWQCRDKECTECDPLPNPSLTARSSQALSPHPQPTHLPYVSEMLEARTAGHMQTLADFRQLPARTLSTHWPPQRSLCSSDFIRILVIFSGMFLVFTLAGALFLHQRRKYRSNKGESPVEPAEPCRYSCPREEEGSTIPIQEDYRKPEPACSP
# T3: K31A
# T3 construct: also called hCD27 K31A
# T3 receptor chain: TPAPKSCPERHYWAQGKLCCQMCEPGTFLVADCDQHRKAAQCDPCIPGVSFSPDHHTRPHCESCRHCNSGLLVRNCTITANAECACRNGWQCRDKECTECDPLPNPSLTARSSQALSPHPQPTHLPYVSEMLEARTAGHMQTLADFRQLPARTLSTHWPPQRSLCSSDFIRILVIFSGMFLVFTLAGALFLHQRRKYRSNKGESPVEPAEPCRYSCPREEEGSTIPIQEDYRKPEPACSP
# T4: D32A
# T4 construct: also called hCD27 D32A
# T4 receptor chain: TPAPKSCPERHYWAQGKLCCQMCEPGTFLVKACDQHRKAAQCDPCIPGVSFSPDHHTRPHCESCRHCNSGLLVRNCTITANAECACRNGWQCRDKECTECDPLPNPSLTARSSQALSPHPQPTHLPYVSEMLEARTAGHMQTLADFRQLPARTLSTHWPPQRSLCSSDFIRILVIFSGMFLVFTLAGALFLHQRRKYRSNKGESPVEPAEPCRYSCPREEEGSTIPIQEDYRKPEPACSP
# T5: I46A
# T5 construct: also called hCD27 I46A
# T5 receptor chain: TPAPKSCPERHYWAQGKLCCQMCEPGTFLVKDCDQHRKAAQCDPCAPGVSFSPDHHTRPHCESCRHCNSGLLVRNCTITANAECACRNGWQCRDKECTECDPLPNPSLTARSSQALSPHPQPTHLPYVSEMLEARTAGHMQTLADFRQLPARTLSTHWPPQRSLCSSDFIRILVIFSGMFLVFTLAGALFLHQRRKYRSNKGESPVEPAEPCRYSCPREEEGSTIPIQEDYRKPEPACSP
# T6: H60A
# T6 construct: also called hCD27 H60A
# T6 receptor chain: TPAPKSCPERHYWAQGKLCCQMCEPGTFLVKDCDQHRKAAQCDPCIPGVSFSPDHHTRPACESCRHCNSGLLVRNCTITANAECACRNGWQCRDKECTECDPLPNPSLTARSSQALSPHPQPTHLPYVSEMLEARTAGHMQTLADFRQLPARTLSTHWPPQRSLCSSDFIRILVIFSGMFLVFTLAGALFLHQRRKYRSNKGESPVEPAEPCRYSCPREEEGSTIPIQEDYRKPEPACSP
# T7: R87A
# T7 construct: also called hCD27 R87A
# T7 receptor chain: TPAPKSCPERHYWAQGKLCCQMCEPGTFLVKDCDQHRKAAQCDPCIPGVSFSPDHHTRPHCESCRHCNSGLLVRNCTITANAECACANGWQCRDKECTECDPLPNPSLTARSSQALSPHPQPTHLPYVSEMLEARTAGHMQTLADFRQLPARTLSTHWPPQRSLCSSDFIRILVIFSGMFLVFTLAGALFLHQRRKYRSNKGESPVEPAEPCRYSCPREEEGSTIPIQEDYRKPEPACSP
# T8: N88A
# T8 construct: also called hCD27 N88A
# T8 receptor chain: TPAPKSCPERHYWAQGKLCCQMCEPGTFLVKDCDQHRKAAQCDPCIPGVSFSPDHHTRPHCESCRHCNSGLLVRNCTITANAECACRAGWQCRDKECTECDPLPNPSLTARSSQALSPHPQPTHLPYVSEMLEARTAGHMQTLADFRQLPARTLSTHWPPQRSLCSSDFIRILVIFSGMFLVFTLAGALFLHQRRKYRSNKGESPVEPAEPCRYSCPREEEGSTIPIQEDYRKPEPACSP
# T9: G89A
# T9 construct: also called hCD27 G89A
# T9 receptor chain: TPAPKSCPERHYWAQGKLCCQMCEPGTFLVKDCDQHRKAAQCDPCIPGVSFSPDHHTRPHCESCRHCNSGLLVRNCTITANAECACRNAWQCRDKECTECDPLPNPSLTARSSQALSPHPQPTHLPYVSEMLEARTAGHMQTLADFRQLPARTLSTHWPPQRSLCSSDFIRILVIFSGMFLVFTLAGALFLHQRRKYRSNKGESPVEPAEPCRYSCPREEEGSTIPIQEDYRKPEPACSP
# T10: W13A
# T10 construct: also called hCD27 W13A
# T10 receptor chain: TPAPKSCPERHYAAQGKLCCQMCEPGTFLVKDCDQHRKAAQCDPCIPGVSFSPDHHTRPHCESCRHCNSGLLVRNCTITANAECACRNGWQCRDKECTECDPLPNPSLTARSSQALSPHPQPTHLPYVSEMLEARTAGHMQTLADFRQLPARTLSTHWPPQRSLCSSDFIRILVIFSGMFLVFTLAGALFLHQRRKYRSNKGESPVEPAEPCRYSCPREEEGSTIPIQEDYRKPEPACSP
# B1: hCD27.131A (mouse parental 131A) (antibody, mouse IgG1, V domains shown)
# VH: QIQLVQSGPELKKPGETVKISCKASGYTFTNYGMNWVKQAPGKGLKWMGWINTNTGEPTYAEEFKGRFAFSLETSATTAYLQINNLKNEDTATYFCAREGDAMDYWGQGTSVTVSS
# VL: QIVLTQSPAIMSASPGEKVTMTCSASSSVSYMHWYQQKSGTSPKRWIYDTSKLASGVPARFSGSGSGTSYSLTISSMEAEDAATYYCQQWNSYPFTFGSGTKLEIK
# notes: Mouse IgG1 antibody; also called mouse hCD27.131A
# Columns and labels:
# Assay in all cases: flow cytometry on CHO-K1 transfectants, left sub-column
# [1] = molecular target: T1, Q15A
# Description: (§1) The hCD27 variants that were tested are listed. Amino acids correspond to the UniProt P26842-1 sequence. Amino acids 1-20 constitute the signal peptide. Binding is expressed as the geometric mean of the FITC signal, relative to antibody binding to hCD27, which was set at 100%.
# (§2) The ability of several anti-hCD27 antibodies to bind to a series of hCD27 alanine mutants was determined using CHO-K1 cells, transiently transfected pCI-neo empty vector, pCI-neo.hCD27 and several pCI-neo.CD27Ala mutant constructs.
# (§3) Detached cells were transferred to 96 wells round-bottomed well plates at approximately 1.2×10⁵ cells/well. After spinning down the cells, discarding the supernatants and re-suspending the cells in the residual volume, the primary antibodies were added and incubated for 30 minutes at 4° C. Cells were washed three times with DPBS/BSA 1%, followed by centrifugation, discarding of the supernatants and re-suspension in the residual volume. […] After washing once, antibody binding was detected using the HTS plate reader (FACS Canto II) and FlowJo software for data analysis. Debris, dead cells and doublets were excluded from the analysis. Binding was expressed as the geometric mean of the FITC signal, relative to antibody binding to hCD27, which was set at 100%.
# [2] = molecular target: T2, V30A
# Description: as §1, §2, §3
# [3] = molecular target: T3, K31A
# Description: as §1, §2, §3
# [4] = molecular target: T4, D32A
# Description: as §1, §2, §3
# [5] = molecular target: T5, I46A
# Description: as §1, §2, §3
# [6] = molecular target: T6, H60A
# Description: as §1, §2, §3
# [7] = molecular target: T7, R87A
# Description: as §1, §2, §3
# [8] = molecular target: T8, N88A
# Description: as §1, §2, §3
# [9] = molecular target: T9, G89A
# Description: as §1, §2, §3
# [10] = molecular target: T10, W13A
# Description: as §1, §2, §3
binder,measurement,setting,value
B1,"binding, WT hCD27 = 100 (GM FITC)",[1],99.6%
same,"binding, WT hCD27 = 100 (GM FITC)",[2],170%
same,"binding, WT hCD27 = 100 (GM FITC)",[3],203%
same,"binding, WT hCD27 = 100 (GM FITC)",[4],113%
same,"binding, WT hCD27 = 100 (GM FITC)",[5],132%
same,"binding, WT hCD27 = 100 (GM FITC)",[6],178%
same,"binding, WT hCD27 = 100 (GM FITC)",[7],153%
same,"binding, WT hCD27 = 100 (GM FITC)",[8],162%
same,"binding, WT hCD27 = 100 (GM FITC)",[9],113%
same,"binding, WT hCD27 = 100 (GM FITC)",[10],86%
